Test results as given in patent publication US20170051041A1.

Legend:
Assay in all cases: SPR single-cycle kinetics; reference WT-FVIII-C2
[1] = molecular target: FVIII-C2 mutein F2200A (human) (UniProt P00451)
[2] = molecular target: FVIII-C2 mutein S2254A (human) (UniProt P00451)
[3] = molecular target: FVIII-C2 mutein Q2316A (human) (UniProt P00451)
[4] = molecular target: FVIII-C2 mutein L2252A (human) (UniProt P00451)
[5] = molecular target: FVIII-C2 mutein E2228A (human) (UniProt P00451)
[6] = molecular target: FVIII-C2 mutein H2315A (human) (UniProt P00451)
[7] = molecular target: FVIII-C2 mutein R2220A (human) (UniProt P00451)

Chain of UniProt P00451 (P00451 2189-2351 F2219A): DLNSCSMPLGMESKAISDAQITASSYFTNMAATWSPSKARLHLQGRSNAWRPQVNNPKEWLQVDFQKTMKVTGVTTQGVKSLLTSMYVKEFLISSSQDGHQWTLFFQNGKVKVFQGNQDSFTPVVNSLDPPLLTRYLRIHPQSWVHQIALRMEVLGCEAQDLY
Chain of Fab fragment of human anti-FVIII mAb BO2C11 (VH): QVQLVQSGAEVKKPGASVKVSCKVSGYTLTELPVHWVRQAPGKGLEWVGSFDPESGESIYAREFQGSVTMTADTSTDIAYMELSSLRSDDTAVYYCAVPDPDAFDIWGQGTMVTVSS
Chain of Fab fragment of human anti-FVIII mAb BO2C11 (VL): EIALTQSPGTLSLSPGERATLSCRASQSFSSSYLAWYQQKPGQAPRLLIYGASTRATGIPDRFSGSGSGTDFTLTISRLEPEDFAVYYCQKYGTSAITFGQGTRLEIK

Row | Substance | kd(mutein)/kd(WT) [1] [fold] | kd(mutein)/kd(WT) [7] [fold] | also measured
1 | Fab fragment of human anti-FVIII mAb BO2C11 | > 2 |  | 
2 | Murine anti-FVIII C2 domain mAb 1B5 (GMA-8008) (antibody) | > 2 |  | kd(mutein)/kd(WT) [2]: > 2 fold; kd(mutein)/kd(WT) [3]: > 2 fold; kd(mutein)/kd(WT) [4]: > 2 fold; kd(mutein)/kd(WT) [5]: > 2 fold; kd(mutein)/kd(WT) [6]: > 2 fold
3 | Murine anti-FVIII C2 domain mAb ESH4 (antibody) |  | 2.7 | 
4 | Murine anti-FVIII C2 domain mAb ESH8 (antibody) |  | 4.5 | 
5 | Murine anti-FVIII C2 domain mAb I109 (antibody) | > 2 |  | 

More lines, main results first:

Row | kd(mutein)/kd(WT) [1] [fold] | kd(mutein)/kd(WT) [7] [fold] | Substance | also measured
6 |  | 3 | Murine anti-FVIII C2 domain mAb 2-117 (GMA-8003) (antibody) | 
7 | > 2 |  | Murine anti-FVIII C2 domain mAb 3D12 (antibody) | 
